From patent US20110091994A1, “Methods for Screening Compounds for Treating and/or Preventing an Hepatitis C Virus Infection” (priority 2008, published 2011)
Read-outs that look alike come from different tables or passages of the source.

Legend:
[1] = target: T1, HCV ORFs (Gal4-DB fusions) (Hepatitis C virus genotype 1b, UniProt Q9WMX2); assay type: binding, HCV genotype 1b, isolate con1; conditions: human protein as prey
T1 construct: expressed in transfected cells; host or cells: Saccharomyces cerevisiae MAV203 (IMAP1) / AH109 (IMAP2)
Experimental: (§1) HCV ORFs were transferred from pDONR223 into bait vector (pPC97) to be expressed as Gal4-DB fusions in yeast. Two different screening methods were used (IMAP1 and IMAP2). Both for IMAP1 and IMAP2 strategies and because bait constructs sometimes self-transactivate reporter genes, SD-L-H culture medium were supplemented with 3-aminotriazole (3-AT). Appropriate concentrations of this drug were determined by growing bait strains on SD-L-H medium supplemented with increasing concentrations of 3-AT. […] For IMAP1, bait vectors were introduced in MAV203 yeast strain and both human spleen and foetal brain AD-cDNA libraries (Invitrogen) were screened by transformation as described (7). All primary positive clones (selected on SD-W-L-H+3-AT) were tested by further phenotypic assay using two additional reporter genes: LacZ (X-Gal colorimetric assay) and URA3 (growth assay on 5-FOA supplemented medium). […] AD-cDNA were PCR-amplified and inserts were sequenced to identify interactors. IMAP2 screens were performed by yeast mating, using AH109 and Y187 yeast strains (Clontech (8)). Bait vectors were transformed into AH109 (bait strain) and human spleen and foetal brain AD-cDNA libraries (Invitrogen) were transformed into Y187 (prey strain). Single bait strains were mated with prey strains then diploids were plated on SD-W-L-H+3-AT medium. Positive clones were maintained onto this selective medium for 15 days to eliminate any contaminant AD-cDNA plasmid (9). AD-cDNAs were PCR amplified and inserts were sequenced.
(§2) We have developed a bioinformatic pipeline that assigns each IST to its native human genome transcript. […] Gal4 motif was searched (last 87 bases of GAL4-AD), sequences downstream of this motif were translated into peptides and aligned using BLASTP against the REFSEQ (http://www.ncbi.nlm.nih.gov/RefSeq/) human protein sequence database (release 04/2007). Low-confidence alignments (E value>10^−10, identity <80%) and premature STOP codon containing sequences were eliminated. Only in-frame proteins and high quality sequences were further considered

[2] = tested on: HCV ORFs (Gal4-DB fusions); assay type: binding, HCV genotype 1b, isolate con1; conditions: human protein listed by gene symbol; the value names the HCV protein it interacts with
Experimental: as §1, §2
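Further: yeast two-hybrid screens using HCV genotype 1b proteins fused to Gal4-DB as baits against prey cDNA libraries from human spleen and foetal brain, IMAP1 via transformation and IMAP2 via mating.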

Molecule | IMAP Y2H IMAP2 (number of IST) ([1]; HCV protein NS5A as bait) | Interaction with viral protein [2] | IMAP Y2H IMAP2 (number of IST) ([1]; HCV protein NS3 as bait) | IMAP Y2H IMAP2 (number of IST) ([1]; HCV protein NS5B as bait)
SORBS3 (protein, UniProt O60504 1-671, looked up) Vinexin: MQGPPRSLRAGLSLDDFIPGHLQSHIGSSSRGTRVPVIRNGGSNTLNFQFHDPAPRTVCNGGYTPRRDASQHPDPAWYQTWPGPGSKPSASTKIPASQHTQNWSATWTKDSKRRDKRWVKYEGIGPVDESGMPIAPRSSVDRPRDWYRRMFQQIHRKMPDLQLDWTFEEPPRDPRHLGAQQRPAHRPGPATSSSGRSWDHSEELPRSTFNYRPGAFSTVLQPSNQVLRRREKVDNVWTEESWNQFLQELETGQRPKKPLVDDPGEKPSQPIEVLLERELAELSAELDKDLRAIETRLPSPKSSPAPRRAPEQRPPAGPASAWSSSYPHAPYLGSARSLSPHKMADGGSPFLGRRDFVYPSSTRDPSASNGGGSPARREEKKRKAARLKFDFQAQSPKELTLQKGDIVYIHKEVDKNWLEGEHHGRLGIFPANYVEVLPADEIPKPIKPPTYQVLEYGEAVAQYTFKGDLEVELSFRKGEHICLIRKVNENWYEGRITGTGRQGIFPASYVQVSREPRLRLCDDGPQLPTSPRLTAAARSARHPSSPSALRSPADPIDLGGQTSPRRTGFSFPTQEPRPQTQNLGTPGPALSHSRGPSHPLDLGTSSPNTSQIHWTPYRAMYQYRPQNEDELELREGDRVDVMQQCDDGWFVGVSRRTQKFGTFPGNYVAPV | 1 | NS5A |  | 
PARVG (protein, UniProt Q9HBI0 1-331, looked up) Gamma-parvin: MEPEFLYDLLQLPKGVEPPAEEELSKGGKKKYLPPTSRKDPKFEELQKVLMEWINATLLPEHIVVRSLEEDMFDGLILHHLFQRLAALKLEAEDIALTATSQKHKLTVVLEAVNRSLQLEEWQAKWSVESIFNKDLLSTLHLLVALAKRFQPDLSLPTNVQVEVITIESTKSGLKSEKLVEQLTEYSTDKDEPPKDVFDELFKLAPEKVNAVKEAIVNFVNQKLDRLGLSVQNLDTQFADGVILLLLIGQLEGFFLHLKEFYLTPNSPAEMLHNVTLALELLKDEGLLSCPVSPEDIVNKDAKSTLRVLYGLFCKHTQKAHRDRTPHGAPN | 1 | NS5A |  | 
TP53BP2 (protein, UniProt Q13625 1-1128, looked up) Apoptosis-stimulating of p53 …: MMPMFLTVYLSNNEQHFTEVPVTPETICRDVVDLCKEPGESDCHLAEVWCGSERPVADNERMFDVLQRFGSQRNEVRFFLRHERPPGRDIVSGPRSQDPSLKRNGVKVPGEYRRKENGVNSPRMDLTLAELQEMASRQQQQIEAQQQLLATKEQRLKFLKQQDQRQQQQVAEQEKLKRLKEIAENQEAKLKKVRALKGHVEQKRLSNGKLVEEIEQMNNLFQQKQRELVLAVSKVEELTRQLEMLKNGRIDSHHDNQSAVAELDRLYKELQLRNKLNQEQNAKLQQQRECLNKRNSEVAVMDKRVNELRDRLWKKKAALQQKENLPVSSDGNLPQQAASAPSRVAAVGPYIQSSTMPRMPSRPELLVKPALPDGSLVIQASEGPMKIQTLPNMRSGAASQTKGSKIHPVGPDWSPSNADLFPSQGSASVPQSTGNALDQVDDGEVPLREKEKKVRPFSMFDAVDQSNAPPSFGTLRKNQSSEDILRDAQVANKNVAKVPPPVPTKPKQINLPYFGQTNQPPSDIKPDGSSQQLSTVVPSMGTKPKPAGQQPRVLLSPSIPSVGQDQTLSPGSKQESPPAAAVRPFTPQPSKDTLLPPFRKPQTVAASSIYSMYTQQQAPGKNFQQAVQSALTKTHTRGPHFSSVYGKPVIAAAQNQQQHPENIYSNSQGKPGSPEPETEPVSSVQENHENERIPRPLSPTKLLPFLSNPYRNQSDADLEALRKKLSNAPRPLKKRSSITEPEGPNGPNIQKLLYQRTTIAAMETISVPSYPSKSASVTASSESPVEIQNPYLHVEPEKEVVSLVPESLSPEDVGNASTENSDMPAPSPGLDYEPEGVPDNSPNLQNNPEEPNPEAPHVLDVYLEEYPPYPPPPYPSGEPEGPGEDSVSMRPPEITGQVSLPPGKRTNLRKTGSERIAHGMRVKFNPLALLLDSSLEGEFDLVQRIIYEVDDPSLPNDEGITALHNAVCAGHTEIVKFLVQFGVNVNAADSDGWTPLHCAASCNNVQVCKFLVESGAAVFAMTYSDMQTAADKCEEMEEGYTQCSQFLYGVQEKMGIMNKGVIYALWDYEPQNDDELPMKEGDCMTIIHREDEDEIEWWWARLNDKEGYVPRNLLGLYPRIKPRQRSLA | 2 | NS5A |  | 
BCL2A1 (protein, UniProt Q16548 1-175, looked up) Bcl-2-related protein A1: MTDCEFGYIYRLAQDYLQCVLQIPQPGSGPSKTSRVLQNVAFSVQKEVEKNLKSCLDNVNVVSVDTARTLFNQVMEKEFEDGIINWGRIVTIFAFEGILIKKLLRQQIAPDVDTYKEISYFVAEFIMNNTGEWIRQNGGWENGFVKKFEPKSGWMTFLEVTGKICEMLSLLKQYC |  | NS3 | 1 | 
OS9 (protein, UniProt Q13438 26-667, looked up) Protein OS-9: GGVGSLNLEELSEMRYGIEILPLPVMGGQSQSSDVVIVSSKYKQRYECRLPAGAIHFQREREEETPAYQGPGIPELLSPMRDAPCLLKTKDWWTYEFCYGRHIQQYHMEDSEIKGEVLYLGYYQSAFDWDDETAKASKQHRLKRYHSQTYGNGSKCDLNGRPREAEVRFLCDEGAGISGDYIDRVDEPLSCSYVLTIRTPRLCPHPLLRPPPSAAPQAILCHPSLQPEEYMAYVQRQADSKQYGDKIIEELQDLGPQVWSETKSGVAPQKMAGASPTKDDSKDSDFWKMLNEPEDQAPGGEEVPAEEQDPSPEAADSASGAPNDFQNNVQVKVIRSPADLIRFIEELKGGTKKGKPNIGQEQPVDDAAEVPQREPEKERGDPERQREMEEEEDEDEDEDEDEDERQLLGEFEKELEGILLPSDRDRLRSEVKAGMERELENIIQETEKELDPDGLKKESERDRAMLALTSTLNKLIKRLEEKQSPELVKKHKKKRVVPKKPPPSPQPTEEDPEHRVRVRVTKLRLGGPNQDLTVLEMKRENPQLKQIEGLVKELLEREGLTAAGKIEIKIVRPWAEGTEEGARWLTDEDTRNLKEIFFNILVPGAEEAQKERQRQKELESNYRRVWGSPGGEGTGDLDEFDF |  | NS5A |  | 3
IGLL1 (protein, UniProt P15814 38-213, looked up) Immunoglobulin lambda-like …: LLRPTAASQSRALGPGAPGGSSRSSLRSRWGRFLLQRGSWTGPRCWPRGFQSKHNSVTHVFGSGTQLTVLSQPKATPSVTLFPPSSEELQANKATLVCLMNDFYPGILTVTWKADGTPITQGVEMTTPSKQSNNKYAASSYLSLTPEQWRSRRSYSCQVMHEGSTVEKTVAPAECS | 1 | NS5A |  | 
PMVK (protein, UniProt Q15126 1-192, looked up) Phosphomevalonate kinase: MAPLGGAPRLVLLFSGKRKSGKDFVTEALQSRLGADVCAVLRLSGPLKEQYAQEHGLNFQRLLDTSTYKEAFRKDMIRWGEEKRQADPGFFCRKIVEGISQPIWLVSDTRRVSDIQWFREAYGAVTQTVRVVALEQSRQQRGWVFTPGVDDAESECGLDNFGDFDWVIENHGVEQRLEEQLENLIEFIRSRL | 1 | NS5A |  | 
NFE2 (protein, UniProt Q16621 1-373, looked up) Transcription factor NF-E2 45 …: MSPCPPQQSRNRVIQLSTSELGEMELTWQEIMSITELQGLNAPSEPSFEPQAPAPYLGPPPPTTYCPCSIHPDSGFPLPPPPYELPASTSHVPDPPYSYGNMAIPVSKPLSLSGLLSEPLQDPLALLDIGLPAGPPKPQEDPESDSGLSLNYSDAESLELEGTEAGRRRSEYVEMYPVEYPYSLMPNSLAHSNYTLPAAETPLALEPSSGPVRAKPTARGEAGSRDERRALAMKIPFPTDKIVNLPVDDFNELLARYPLTESQLALVRDIRRRGKNKVAAQNCRKRKLETIVQLERELERLTNERERLLRARGEADRTLEVMRQQLTELYRDIFQHLRDESGNSYSPEEYALQQAADGTIFLVPRGTKMEATD | 1 | NS5A |  | 
LIMS2 (protein, UniProt Q7Z4I7 1-341, looked up) LIM and senescent cell …: MTGSNMSDALANAVCQRCQARFSPAERIVNSNGELYHEHCFVCAQCFRPFPEGLFYEFEGRKYCEHDFQMLFAPCCGSCGEFIIGRVIKAMNNNWHPGCFRCELCDVELADLGFVKNAGRHLCRPCHNREKAKGLGKYICQRCHLVIDEQPLMFRSDAYHPDHFNCTHCGKELTAEARELKGELYCLPCHDKMGVPICGACRRPIEGRVVNALGKQWHVEHFVCAKCEKPFLGHRHYEKKGLAYCETHYNQLFGDVCYNCSHVIEGDVVSALNKAWCVSCFSCSTCNSKLTLKNKFVEFDMKPVCKRCYEKFPLELKKRLKKLSELTSRKAQPKATDLNSA | 1 | NS5A |  | 
RRBP1 (protein, UniProt Q9P2E9 1-1410, looked up) Ribosome-binding protein 1: MDIYDTQTLGVVVFGGFMVVSAIGIFLVSTFSMKETSYEEALANQRKEMAKTHHQKVEKKKKEKTVEKKGKTKKKEEKPNGKIPDHDPAPNVTVLLREPVRAPAVAVAPTPVQPPIIVAPVATVPAMPQEKLASSPKDKKKKEKKVAKVEPAVSSVVNSIQVLTSKAAILETAPKEVPMVVVPPVGAKGNTPATGTTQGKKAEGTQNQSKKAEGAPNQGRKAEGTPNQGKKTEGTPNQGKKAEGTPNQGKKAEGTPNQGKKAEGAQNQGKKVDTTPNQGKKVEGAPTQGRKAEGAQNQAKKVEGAQNQGKKAEGAQNQGKKGEGAQNQGKKAEGAQNQGKKAEGAQNQGKKAEGAQNQGKKAEGAQNQGKKAEGAQNQGKKAEGAQNQGKKVEGAQNQGKKAEGAQNQGKKAEGAQNQGKKAEGAQNQGKKAEGAQNQGKKAEGAQNQGKKAEGAQNQGKKAEGAQNQGKKVEGAQNQGKKAEGAQNQGKKAEGAQNQGKKAEGAQNQGQKGEGAQNQGKKTEGAQGKKAERSPNQGKKGEGAPIQGKKADSVANQGTKVEGITNQGKKAEGSPSEGKKAEGSPNQGKKADAAANQGKKTESASVQGRNTDVAQSPEAPKQEAPAKKKSGSKKKGEPGPPDADGPLYLPYKTLVSTVGSMVFNEGEAQRLIEILSEKAGIIQDTWHKATQKGDPVAILKRQLEEKEKLLATEQEDAAVAKSKLRELNKEMAAEKAKAAAGEAKVKKQLVAREQEITAVQARMQASYREHVKEVQQLQGKIRTLQEQLENGPNTQLARLQQENSILRDALNQATSQVESKQNAELAKLRQELSKVSKELVEKSEAVRQDEQQRKALEAKAAAFEKQVLQLQASHRESEEALQKRLDEVSRELCHTQSSHASLRADAEKAQEQQQQMAELHSKLQSSEAEVRSKCEELSGLHGQLQEARAENSQLTERIRSIEALLEAGQARDAQDVQASQAEADQQQTRLKELESQVSGLEKEAIELREAVEQQKVKNNDLREKNWKAMEALATAEQACKEKLLSLTQAKEESEKQLCLIEAQTMEALLALLPELSVLAQQNYTEWLQDLKEKGPTLLKHPPAPAEPSSDLASKLREAEETQSTLQAECDQYRSILAETEGMLRDLQKSVEEEEQVWRAKVGAAEEELQKSRVTVKHLEEIVEKLKGELESSDQVREHTSHLEAELEKHMAAASAECQNYAKEVAGLRQLLLESQSQLDAAKSEAQKQSDELALVRQQLSEMKSHVEDGDIAGAPASSPEAPPAEQDPVQLKTQLEWTEAILEDEQTQRQKLTAEFEEAQTSACRLQEELEKLRTAGPLESSETEEASQLKERLEKEKKLTSDLGRAATRLQELLKTTQEQLAREKDTVKKLQEQLEKAEDGSSSKEGTSV | 2 | NS5A |  | 
